This assay deals with non-tumor bearing mice. Briefly: Lymph pulsation frequency assay in non-tumor bearing mice. In kind it is in vivo, mouse. The note with it: acute injection, n=6 animals/group (FIG. 6B). The method, then:
Female Balb-c nude mice from Charles River Laboratory were used at 6-8 weeks of age. To establish baseline pulsation frequency and lymph node loading rates we imaged non-tumor bearing mice. In some cases mice were longitudinally imaged for pulsation, i.e., the same mouse was imaged daily over a 7-day period. Mice were anesthetized with 2% Isoflurane and maintained at 37° C. throughout experiments. A PulseOx probe was attached to the thigh (opposing injection site) to monitor heart rate before running pulsation assays.
For all experiments fluorescent dye injections were performed with 5 mg AlexaFluor680 conjugated to dextran 70 kd (MolecularProbes) in 1 ml sterile PBS. […]
Epi-fluorescence Microscopy Pulsatile flow activity was observed using an epifluorescence microscope (Prairie Technologies) equipped with a Cy5.5 Red filter set (Chroma), Halogen light source (ExFo Excite Series 120), 4× objective lens (Olympus) and a charge coupled device (CCD) camera (S97827, Olympus). […] Pulsation and heart rates were monitored (PulseOx) for stability for 10 minutes before video capture. […]
Digital videos (5 minutes) of pulsation were acquired with PictureFrame software (Optronics) using time lapse settings (282 ms exposure, no inter-frame delay, 5 minutes total acquisition time). Data was analyzed off-line from recorded time lapse videos. […]

B1: recombinant VEGF-C protein: recombinant VEGF-C protein injected acutely in non-tumor bearing mice (protein, UniProt P97953 108-223, looked up)
Vascular endothelial growth …: AHYNTEILKSIDNEWRKTQCMPREVCIDVGKEFGAATNTFFKPPCVSVYRCGGCCNSEGLQCMNTSTGYLSKTLFEITVPLSQGPKPVTISFANHTSCRCMSKLDVYRQVHSIIRR
Regarding B1, the lymph pulsation frequency result is “does not result in any significant change”.

(Values after US20110064670A1, “METHOD TO IDENTIFY A PATIENT WITH AN INCREASED LIKELIHOOD OF RESPONDING TO AN ANTI-CANCER AGENT” (Genentech, Inc., priority 2009, published 2011).)
